# Measurements published in PMC9063846 (Acta Crystallographica. Section D, Structural Biology, 2022).
# B1: Phocaeicola vulgatus sialic acid 9-O-acetylesterase (PvSAE), His6-tagged (enzyme)
# chain: ERKYSTFYEQRATLFEELPVTSKDIIFLGNSITNGCEWAELFQNKNVKNRGISGDICMGVYDRLDPIVKGKPAKIFLLIGINDVSRGTSADKIISEISMIVRKIKQESPKTKLYLQSVLPVNDCYGMFNGHTSRWQVVKQINDLLEPLAVKEGVAYIDLYSHFVEKETGKMNPVYTNDGLHLLGKGYLLWRDIVKPYVDQK
# notes: Sialic acid 9-O-acetylesterase PvSAE (BVU4141) of Phocaeicola vulgatus, GenBank ABR41743.1, without its signal peptide; the text says that the signal peptide is predicted to be cut between residues 19 and 20; Homodimer by SEC-MALLS and in both crystal forms; also called His6-PvSAE; P. vulgatus 9-O-acetylsialic acid esterase
# Molecular target: the molecule itself
# Test: SEC-MALS; SEC-MALLS; Superdex 200 Increase 10/300 GL; 100 µl injected at 2 mg/ml; 20 mM HEPES, 200 mM NaCl pH 7.4; room temperature (20 ± 2 °C)
protein,measurement,value
B1,stoichiometry N,2
